Patent US20220332804A1 (CSL INNOVATION, published 2022)
Positions count from the first letter of the chain named.

Experiments:
Assay in all cases: SPR, antibody captured, C2 as analyte;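 note: biacore SPR at 37 °C, anti-C2 mAbs captured via goat anti-human IgG on CM5 chips, double-referenced sensorgrams fit to a 1:1 kinetic or steady-state model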
human C2 E645A = molecular target: T1, human C2 E645A (human, UniProt P06681 21-752)
T1 sequence: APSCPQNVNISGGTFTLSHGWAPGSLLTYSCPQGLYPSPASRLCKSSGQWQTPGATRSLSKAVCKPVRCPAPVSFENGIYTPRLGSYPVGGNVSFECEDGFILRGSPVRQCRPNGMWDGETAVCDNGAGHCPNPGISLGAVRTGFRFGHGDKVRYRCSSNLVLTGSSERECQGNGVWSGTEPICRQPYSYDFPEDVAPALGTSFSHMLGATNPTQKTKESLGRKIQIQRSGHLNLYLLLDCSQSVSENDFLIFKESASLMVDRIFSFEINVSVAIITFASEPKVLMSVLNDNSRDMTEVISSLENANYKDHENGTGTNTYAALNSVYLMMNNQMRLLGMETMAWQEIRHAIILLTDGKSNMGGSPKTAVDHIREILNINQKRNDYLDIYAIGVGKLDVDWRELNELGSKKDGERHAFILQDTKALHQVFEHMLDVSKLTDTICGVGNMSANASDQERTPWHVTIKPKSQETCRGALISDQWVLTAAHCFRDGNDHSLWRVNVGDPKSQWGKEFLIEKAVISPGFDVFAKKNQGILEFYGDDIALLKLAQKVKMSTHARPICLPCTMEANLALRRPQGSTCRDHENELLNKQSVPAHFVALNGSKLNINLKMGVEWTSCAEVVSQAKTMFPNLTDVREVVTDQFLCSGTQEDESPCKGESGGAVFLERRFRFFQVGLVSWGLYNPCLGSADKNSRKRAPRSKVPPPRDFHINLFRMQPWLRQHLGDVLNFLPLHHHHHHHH

human C2 E433A = molecular target: T2, human C2 E433A (human, UniProt P06681 21-752)
T2 sequence: T1 sequence with E413A, A625E

human C2 K274A = molecular target: T3, human C2 K274A (human, UniProt P06681 21-752)
T3 sequence: T1 sequence with K254A, A625E

human C2 N327A = molecular target: T4, human C2 N327A (human, UniProt P06681 21-752)
T4 sequence: T1 sequence with N307A, A625E

B1: RF16-226 (antibody, human IgG4 S228P, lambda)
heavy: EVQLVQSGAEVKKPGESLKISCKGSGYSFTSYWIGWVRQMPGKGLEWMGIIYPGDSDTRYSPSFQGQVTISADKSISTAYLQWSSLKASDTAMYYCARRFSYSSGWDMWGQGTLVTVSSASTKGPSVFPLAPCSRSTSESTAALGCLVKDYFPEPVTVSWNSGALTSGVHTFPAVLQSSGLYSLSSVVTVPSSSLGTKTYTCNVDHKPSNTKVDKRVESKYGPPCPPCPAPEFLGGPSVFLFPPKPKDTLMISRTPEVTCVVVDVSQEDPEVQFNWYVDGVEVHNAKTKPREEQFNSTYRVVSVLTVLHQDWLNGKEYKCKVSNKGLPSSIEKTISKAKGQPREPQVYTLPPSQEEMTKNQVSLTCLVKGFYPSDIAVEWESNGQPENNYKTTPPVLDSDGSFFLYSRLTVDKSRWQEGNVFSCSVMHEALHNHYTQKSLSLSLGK
light: SYELTQPPSVSVSPGQTARITCSGDALTSKYVAWYQQKSGLAPLLVIYEDTRRPSGIPAKFSGSSSGSVATLTISGAHGDDEADYYCYSTDASGHQRVFGGGTKLTVLSQPKAAPSVTLFPPSSEELQANKATLVCLISDFYPGAVTVAWKADGSPVKAGVETTKPSKQSNNKYAASSYLSLTPEQWKSHRSYSCQVTHEGSTVEKTVAPTECS
notes: pH-dependent anti-C2 antibody from a phage display library; also called WT
- Kd (human C2 E645A): 14 nM
- Kd (human C2 E433A): 2.6 nM
- Kd (human C2 K274A): 291 nM
- Kd (human C2 N327A): 67.4 nM
